In patent US20170312350A1 (published 2017):

Tests used:
[1] = biological target: T1, IGF2BP3 (IGF2BP3-001) peptide on HLA-A2 (human); assay: Target peptide titration on loaded target cells, IFN-gamma release; RNA-electroporated primary CD8+ T cells; full-length, on cells
T1 peptide: KIQEILTQV

[2] = biological target: T2, IGF2BP3-001 A2 (alanine-substitution variant of IGF2BP3-001) peptide on HLA-A*02, assumed (human); assay: cytokine release
T2 peptide: KAQEILTQV

[3] = biological target: T3, IGF2BP3-001 A8 (alanine-substitution variant of IGF2BP3-001) peptide on HLA-A*02, assumed (human); assay: cytokine release
T3 peptide: KIQEILTAV

[4] = biological target: T4, IGF2BP3-001 A9 (alanine-substitution variant of IGF2BP3-001) peptide on HLA-A*02, assumed (human); assay: cytokine release
T4 peptide: KIQEILTQA

B1: TCR R10P1A7 (TCR, V domains shown)
Valpha: GEDVEQSLFLSVREGDSSVINCTYTDSSSTYLYWYKQEPGAGLQLLTYIFSNMDMKQDQRLTVLLNKKDKHLSLRIADTQTGDSAIYFCAESKETRLMFGDGTQLVVKP
Vbeta: GAVVSQHPSWVICKSGTSVKIECRSLDFQATTMFWYRQFPKQSLMLMATSNEGSKATYEQGVEKDKFLINHASLTLSTLTVTSAHPEDSSFYICSARAGGHEQFFGPGTRLTVL
EC50 of peptide [1]: ~1 nM | binding result [2]: recognises | binding result [3]: recognises | binding result [4]: recognises
